Measured values: article PMC12948190, “Microfluidic Electrochemical Biosensor for the Detection of Platelet Factor 4 Antibody‐Mediated Thrombotic Disorders” (Advanced Science, 2025)

Target: the molecule itself
Test: cross-linking + AUC; PF4 cross-linked with 1 mg/mL EDC (equal v:v) in 15 mM MES pH 8.0, 6 h, ambient temperature, stopped with 1 M Tris pH 7.4; oligomeric species analysed by SDS-PAGE and ultracentrifugation

B1: cross-linked platelet factor 4 (natural protein, human, UniProt P02776 32-101, looked up)
chain: EAEEDGDLQCLCVKTTSQVRPRHITSLEVIKAGPHCPTAQLIATLKNGRKICLDLQAPLYKKIIKKLLES
modifications: chemically cross-linked with 1-ethyl-3-(3-dimethylaminopropyl) carbodiimide (EDC); cross-linked residues not stated
notes: Platelet factor 4 (PF4, CXCL4), human, recombinant; The bought recombinant protein is probably the mature 70-residue chemokine (surmised); also called c-PF4; cross-linked PF4; source: bought: Protein Foundry LLC (recombinant PF4, Human CXCL4); cross-linked with EDC
stoichiometry N: 4
